Where two headings read alike, the source gives them in different places.
Legend:
[1] = target: PahZ2_(KT-1), poly(aspartic acid) hydrolase-2 of Sphingomonas sp. KT-1 (Sphingomonas sp. KT-1); test: SEC
[2] = target: PahZ2_(KT-1), poly(aspartic acid) hydrolase-2 of Sphingomonas sp. KT-1 (Sphingomonas sp. KT-1); test: SEC; remark: listed apart in the source

- stoichiometry N [1]: 1.94
- stoichiometry N [2]: 2.4
Substance: PahZ2_(KT-1), poly(aspartic acid) hydrolase-2 of Sphingomonas sp. KT-1 (enzyme)
